The target of assay [1] is T1, human CLDN3 (human, UniProt O15551 1-220).
T1 construct: also called hCLDN3; hCLDN3/BaF
T1 sequence: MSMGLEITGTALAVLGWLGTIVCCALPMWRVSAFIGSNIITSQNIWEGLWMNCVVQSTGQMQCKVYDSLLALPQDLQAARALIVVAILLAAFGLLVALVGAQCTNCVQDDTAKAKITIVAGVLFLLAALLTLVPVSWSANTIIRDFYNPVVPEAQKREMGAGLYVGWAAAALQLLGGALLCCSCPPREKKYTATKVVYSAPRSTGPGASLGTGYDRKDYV
The experiment in a line: flow cytometry on hCLDN3/BaF (Ba/F3 transfectant), Alexa Fluor 488 anti-human IgG. The protocol: (§1) Amino acid sequence are highly conserved among CLDN3, CLDN4, CLDN6 and CLDN9. Thus we examined CLDN6 binding specificity by FACS analysis. hCLDN6/BaF, hCLDN3/BaF, hCLDN4/BaF, and hCLDN9/BaF were incubated with CS2201, CS2961, AH05/TR01 and 6PHU3/TR01 at 15 micro g/ml. KLH/TR01 generated in Example 2-3 was used as a staining control. Binding of each antibody was detected with Alexa Fluor 488-conjugated anti human IgG (Invitrogen). Dead cells were separated by eFlour 780 (Invitrogen) staining.
A general note: In flow cytometry, cells or beads pass a laser one at a time.

Assay [2] concerns the target T2, human CLDN4 (human, UniProt O14493 1-209).
T2 construct: also called hCLDN4; hCLDN4/BaF
T2 sequence: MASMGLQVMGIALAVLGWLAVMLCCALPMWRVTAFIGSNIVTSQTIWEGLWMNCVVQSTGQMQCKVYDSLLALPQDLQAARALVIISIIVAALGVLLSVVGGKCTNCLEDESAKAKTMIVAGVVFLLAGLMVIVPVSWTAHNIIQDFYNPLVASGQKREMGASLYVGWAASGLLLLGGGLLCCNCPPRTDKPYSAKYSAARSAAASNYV
The experiment in a line: flow cytometry on hCLDN4/BaF (Ba/F3 transfectant), Alexa Fluor 488 anti-human IgG. As for the experimental part:
as §1

Assay [3] has as its target T3, mouse CLDN3 (mouse, UniProt Q9Z0G9 1-219).
T3 construct: also called mCLDN3; mCLDN3/FS293
T3 sequence: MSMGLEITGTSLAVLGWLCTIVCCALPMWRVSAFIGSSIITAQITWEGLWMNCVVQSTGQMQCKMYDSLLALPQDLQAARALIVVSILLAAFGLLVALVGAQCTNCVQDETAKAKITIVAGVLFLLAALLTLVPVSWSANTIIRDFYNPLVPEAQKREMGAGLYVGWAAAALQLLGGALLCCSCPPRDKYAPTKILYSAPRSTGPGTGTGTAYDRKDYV
The experiment in a line: flow cytometry, FreeStyle 293-F transfectants expressing mouse CLDN3, anti-human IgG Alexa Fluor 647; MFI. The protocol: (§2) Antibodies were mixed with FreeStyle™ 293-F cells transiently expressed human and mouse CLDN3, 4, 6, and 9 at final concentration of 10 micro g/mL. After 1 hour of incubation, cells were washed by 0.1% BSA containing D-PBS(−), and incubated in 5 micro g/mL of either Goat anti-Human IgG (H+L) Cross-Adsorbed Secondary Antibody, Alexa Fluor 647 (Invitrogen, A21445) or Goat anti-Mouse IgG (H+L) Highly Cross-Adsorbed Secondary Antibody, Alexa Fluor 647 (Invitrogen, A21236), for 1 hour. Cells were then washed with 0.1% BSA containing D-PBS(−), resuspended in 5 micro L of 0.1% BSA containing D-PBS(−), and analyzed by flow cytometer (iQue Screener, intellicyte).

In assay [4] the target is T4, mouse CLDN4 (mouse, UniProt O35054 1-210).
T4 construct: also called mCLDN4; mCLDN4/FS293
T4 sequence: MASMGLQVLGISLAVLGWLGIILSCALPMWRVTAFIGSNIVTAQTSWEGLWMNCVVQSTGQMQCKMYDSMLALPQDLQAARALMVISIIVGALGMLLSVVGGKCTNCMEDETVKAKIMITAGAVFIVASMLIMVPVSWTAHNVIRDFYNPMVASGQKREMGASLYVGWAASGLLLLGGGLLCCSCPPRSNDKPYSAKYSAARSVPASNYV
The experiment in a line: flow cytometry, FreeStyle 293-F transfectants expressing mouse CLDN4, anti-human IgG Alexa Fluor 647; MFI. As for the experimental part:
as §2

For assay [5], the target named is T5, human CLDN6 (Claudin-6) (human, UniProt P56747 1-220).
T5 construct: also called hCLDN6; human Claudin 6
T5 chain: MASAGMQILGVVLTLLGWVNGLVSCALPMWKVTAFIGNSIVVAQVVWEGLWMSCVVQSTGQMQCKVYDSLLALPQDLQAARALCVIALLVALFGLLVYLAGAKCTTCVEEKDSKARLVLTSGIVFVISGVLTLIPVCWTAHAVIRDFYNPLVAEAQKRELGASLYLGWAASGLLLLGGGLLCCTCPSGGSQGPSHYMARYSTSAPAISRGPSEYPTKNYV
The experiment in a line: flow cytometry, FreeStyle 293-F transfectants expressing human CLDN6, anti-human IgG Alexa Fluor 647; MFI.

The target in assay [6] is T6, human CLDN9 (human, UniProt O95484 1-217).
T6 construct: also called hCLDN9; hCLDN9/BaF
T6 sequence: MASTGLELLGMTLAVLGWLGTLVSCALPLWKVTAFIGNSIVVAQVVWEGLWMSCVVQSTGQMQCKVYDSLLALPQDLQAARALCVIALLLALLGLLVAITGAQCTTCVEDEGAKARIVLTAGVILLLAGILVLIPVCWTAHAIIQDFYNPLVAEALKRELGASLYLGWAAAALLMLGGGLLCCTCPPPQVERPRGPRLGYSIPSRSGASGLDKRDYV
The experiment in a line: flow cytometry, FreeStyle 293-F transfectants expressing human CLDN9, anti-human IgG Alexa Fluor 647; MFI. As for the experimental part:
as §2

Assay [7] deals with T7, mouse CLDN6 (mouse, UniProt Q9Z262 1-219).
T7 construct: also called mCLDN6; mCLDN6/FS293
T7 chain: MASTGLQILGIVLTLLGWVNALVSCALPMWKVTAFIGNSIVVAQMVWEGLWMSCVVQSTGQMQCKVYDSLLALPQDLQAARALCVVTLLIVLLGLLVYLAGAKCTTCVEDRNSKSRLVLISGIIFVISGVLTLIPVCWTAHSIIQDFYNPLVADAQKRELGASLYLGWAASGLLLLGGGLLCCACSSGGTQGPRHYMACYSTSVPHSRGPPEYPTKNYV
The experiment in a line: flow cytometry, FreeStyle 293-F transfectants expressing mouse CLDN6, anti-human IgG Alexa Fluor 647; MFI. The protocol: as §2

The target of assay [8] is T8, mouse CLDN9 (mouse, UniProt Q9Z0S7 1-217).
T8 construct: also called mCLDN9; mCLDN9/FS293
T8 sequence: T6 sequence with I86V, I124L, A128S, P188S, Q189H, V190F
The experiment in a line: flow cytometry, FreeStyle 293-F transfectants expressing mouse CLDN9, anti-human IgG Alexa Fluor 647; MFI. As for the experimental part: as §2

Assay [9] has as its target T1, human CLDN3. The experiment in a line: flow cytometry on hCLDN3/BaF (Ba/F3 transfectant), Alexa Fluor 488 anti-human IgG; histogram against KLH/TR01. The protocol: as §1
The target of assay [10] is T2, human CLDN4. The experiment in a line: flow cytometry on hCLDN4/BaF (Ba/F3 transfectant), Alexa Fluor 488 anti-human IgG; histogram against KLH/TR01.
For assay [11], the target named is T6, human CLDN9. The experiment in a line: flow cytometry on hCLDN9/BaF (Ba/F3 transfectant), Alexa Fluor 488 anti-human IgG; histogram against KLH/TR01.

Two molecules from patent publication US20230057904A1 (Chugai, published 2023) can be followed below.

Positions count from the first letter of the chain named.

B1: KLH/TR01 (bispecific antibody, V domains shown)
VH 1: QVQLQQSGPQLVRPGASVKISCKASGYSFTSYWMHWVNQRPGQGLEWIGMIDPSYSETRLNQKFKDKATLTVDKSSSTAYMQLSSPTSEDSAVYYCALYGNYFDYWGQGTTLTVSS
VL 1: DIQMTQSSSSFSVSLGDRVTITCKASEDIYNRLAWYQQKPGNAPRLLISGATSLETGVPSRFSGSGSGKDYTLSITSLQTEDVATYYCQQYWSTPYTFGGGTKLEVK
VH 2: QVQLVESGGGVVQPGGSLRLSCAASGFTFSNAWMHWVRQAPGKGLEWVAQIKDKSQNYATYVAESVKGRFTISRADSKNSIYLQMNSLKTEDTAVYYCRYVHYAAGYGVDIWGQGTTVTVSS
VL 2: DIVMTQSPLSLPVTPGEPASISCRSSQPLVHSNRNTYLHWYQQKPGQAPRLLIYKVSNRFSGVPDRFSGSGSGTDFTLKISRVEAEDVGVYYCGQGTQVPYTFGQGTKLEIK
notes: made by Fab arm exchange; also called bispecific antibody of anti-keyhole limpet hemocyanin (KLH) antibody paired with the human CD3 antibody TR01; negative control
For the molecule B1, the binding result in [1] was “no binding (tested: 15 micro g/ml)”; in assay [2], “no binding (tested: 15 micro g/ml)”; in [3], “no binding (tested: 10 micro g/mL)”; in assay [4] it was “no binding (tested: 10 micro g/mL)”; in [5], “no binding (tested: 10 micro g/mL)”; in assay [6], “no binding (tested: 10 micro g/mL)”. Moreover, the binding result in [7] and in assay [8] was “no binding (tested: 10 micro g/mL)” in each case.

B2: CS2961 (bispecific antibody, human IgG1, kappa, L234A L235A, N297A)
heavy 1: QVQLVESGGGVVQPGGSLRLSCAASGFTFSSYTMSWVREAPGQGLEWMGTISSGGGRTYYPDSVKGRFTISRDNSKNTLYLQMNSLRDEDTAVYYCARGDYRYDGFAYWGEGTLVTVSSASTKGPSVFPLAPSSKSTSGGTAALGCLVEDYFPEPVTVSWNSGALTSGVHTFPAVLESSGLYSLSSVVTVPSSSLGTQTYICNVNHKPSNTKVDERVEPKSCDKTHTCPPCPAPEAAGGPKVFLFPPKPKDTLMISRTPEVTCVVVDVSHEDPEVKFNWYVDGVEVHNAKTKPREEQYASTYRVVSVLTVLHQDWLNGKEYKCKVSNKGLPSSIEKTISKAKGQPREPQVYTLPPSREEMTKNQVSLTCLVKGFYPSDIAVEWESNGQPENNYKTTPPVLDSDGSFFLYSKLTVDKSRWQQGNVFSCSVMHEALHNHYTQESLSLSP
light 1: DIQMTQSPSSLSASVGDRVTITCRASYNIDSYLAWYQKKPGKAPELLIYYSTLLVDGVPDRFSGSRSGTDFTLTISSLQPEDFATYYCQHYYSIPYTFGQGTKVEIERTVAAPSVFIFPPSDKQLKSGTAKVVCLLNNFYPREAKVQWKVDNALQSGNSKESVTEQDSKDSTYSLSSTLTLSKADYEKHKVYACEVTHQGLSSPVTKSFNRGEC
heavy 2: QVQLVESGGGVVQPGGSLRLSCAASGFTFSNAWMHWVRKAPGKGLEWVAQIKDKSQNYATYVAESVKGRFTISRADSKNSIYLQMNSLKTEDTAVYYCRYVHYAAGYGVDIWGQGTTVTVSSASTKGPSVFPLAPSSKSTSGGTAALGCLVKDYFPEPVTVSWNSGALTSGVHTFPAVLKSSGLYSLSSVVTVPSSSLGTQTYICNVNHKPSNTKVDKRVEPKSCDKTHTCPPCPAPEAAGGPKVFLFPPKPKDTLMISRTPEVTCVVVDVSHEDPEVKFNWYVDGVEVHNAKTKPREEQYASTYRVVSVLTVLHQDWLNGKEYKCKVSNKGLPSSIEKTISKAKGQPREPQVYTLPPSRKEMTKNQVSLTCLVKGFYPSDIAVEWESNGQPENNYKTTPPVLDSDGSFFLYSKLTVDKSRWQQGNVFSCSVMHEALHNHYTQKSLSLSP
light 2: DIVMTQSPLSLPVTPGEPASISCRSSQPLVHSNRNTYLHWYQEKPGQAPRLLIYKVSNRFSGVPDRFSGSGSGTDFTLKISRVEAEDVGVYYCGQGTQVPYTFGQGTKLEIKRTVAAPSVFIFPPSDEQLKSGTAEVVCLLNNFYPREAKVQWKVDNALQSGNSEESVTEQDSKDSTYSLSSTLELSKADYEKHKVYACEVTHQGLSSPVTKSFNRGEC
notes: also called 65HQ39E-SG1212/54L0532Q38K-SK1021//TR01 arm with SG1213/SK1017
As for B2, the binding result in assay [9], in assay [10] and in [11] was “no binding (tested: 15 micro g/ml)” throughout.
